Key:
[1] = target: T1, recombinant human Fibroblast Activation Protein (FAP) with N-terminus 6x histidine tag (human, UniProt Q12884 26-760); test: SPR (ProteOn): rhuFAP amine-coupled on a GLC chip, antibody injected at 106.7, 53.3, 26.7, 13.3 and 6.7 nM
T1 construct: Bought protein; also called rFAP; rhFAP
T1 sequence: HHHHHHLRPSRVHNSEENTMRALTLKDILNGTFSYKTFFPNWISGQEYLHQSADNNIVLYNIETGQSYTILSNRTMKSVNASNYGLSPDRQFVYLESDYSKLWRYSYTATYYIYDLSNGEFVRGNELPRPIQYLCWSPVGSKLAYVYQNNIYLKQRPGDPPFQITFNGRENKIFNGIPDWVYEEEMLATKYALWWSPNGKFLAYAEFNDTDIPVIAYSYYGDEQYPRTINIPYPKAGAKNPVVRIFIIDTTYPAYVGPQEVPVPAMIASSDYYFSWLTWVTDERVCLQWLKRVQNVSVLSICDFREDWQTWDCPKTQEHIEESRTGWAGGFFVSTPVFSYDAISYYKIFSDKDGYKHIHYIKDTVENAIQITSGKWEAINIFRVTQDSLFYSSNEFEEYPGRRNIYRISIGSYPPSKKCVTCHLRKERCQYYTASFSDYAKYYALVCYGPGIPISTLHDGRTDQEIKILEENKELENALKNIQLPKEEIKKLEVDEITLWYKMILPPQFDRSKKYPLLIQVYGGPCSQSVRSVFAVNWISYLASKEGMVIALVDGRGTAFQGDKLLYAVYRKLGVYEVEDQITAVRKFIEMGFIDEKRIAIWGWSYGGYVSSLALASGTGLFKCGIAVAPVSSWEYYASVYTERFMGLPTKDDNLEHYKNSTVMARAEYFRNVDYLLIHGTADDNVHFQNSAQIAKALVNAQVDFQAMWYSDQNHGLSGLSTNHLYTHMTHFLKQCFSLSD
Description: This was achieved by varying the concentration of the activation reagents used in each channel. Three activation solutions were prepared using a threefold serial dilution of a stock mixture containing 0.4 M EDC+0.1 M sulfo-NHS and injected for 360 s. Then rhuFAP at 2.5 μg/ml in coupling buffer (10 mM HEPES, 150 mM NaCl, 3.4 mM EDTA, 0.005% Tween 20, pH 5.2) was coupled for 1020 s at 25 μL/min. Excess reactive esters were blocked for 600 s with 1 M ethanolamine hydrochoride. […] serial dilution of […] starting at 16 μg/mL (106.7 nM) was injected for 400 s at 60 μL/min. A single injection delivered a full concentration series, using buffer to complete a row of six samples and provide an in-line blank for double-referencing the response data. Association and dissociation phases were measured for 400 s and 3600 s, respectively.

[2] = target: T1, recombinant human Fibroblast Activation …; test: capture ELISA: His-tagged rFAP captured by coated anti-His antibody (sFAP)
Description: For the capture ELISA, the microplates were coated with mouse anti-His monoclonal antibody (Clontech) diluted to a concentration of 3 μg/ml in PBS, the plates were then blocked, FAP or BSA were diluted to a concentration of 2 μg/ml in PBS and added to the plates to be captured. The binding efficiency of the antibodies was then tested.
The EC₅₀ values were estimated by a non-linear regression using GraphPad Prism (San Diego, USA) software.

[3] = target: T2, cFAP (mixture of three FAP peptides) (human); test: direct ELISA: coated mixture of three FAP peptides (cFAP)
T2 construct: A mixture of three separate peptides coated together, not a complex; The three chains are the three components; also called directly coated FAP peptides mixture
T2 peptide 1: HYIKDTVENAIQITS
T2 peptide 2: GWSYGGYVSSLALAS
T2 peptide 3: QVDFQAMWYSDQNHGL

[4] = target: T1, recombinant human Fibroblast Activation …; test: ELISA: rhFAP held on the plate by an anti-tag antibody, HRP-labelled NI-206.82C2 titrated, TMB, OD 450 nm [continued) E]
From the text: (§1) Active recombinant human enzymes evaluated in this assay include: Fibroblast Activation Protein (FAP; Sino Biologicals, 10464-H07H), Dipeptidyl Peptidase IV (DPPIV, BPS Bioscience 80040), Dipeptidyl Peptidase 8 (DPP8, BPS Bioscience 80080), Dipeptidyl Peptidase 9 (DPP9, BPS Bioscience 80080), and Prolyl Oligopeptidase/Prolyl Endopeptidase (POP/PREP, BPS Bioscience 80105). Each recombinant peptidase was expressed with a purification tag, and attached to the 96 well ELISA plate using either a mouse anti-Histidine antibody (CloneTech), or a mouse anti-Glutathione S-transferase (GST, Sino Biologicals, 111213-MM02) tag antibody. […] H-Gly-Pro-AMC (ATT Bioquest, 13450) was used to validate the presence and activity of DPP4, DPP9, and DPP8. Z-Gly-Pro-AMC (BaChem, 11145) was used to evaluate the activity of FAP and POP/PREP. […] Following a washing step, bound antibody was detected using 3,3′,5,5′-Tetramethylbenzidine (TMB) substrate.

[5] = target: T3, recombinant human Dipeptidyl Peptidase 8 (DPP8) (human, UniProt Q6V1X1 1-898, limits assumed); test: ELISA: enzyme held on the plate by an anti-tag antibody, HRP-labelled NI-206.82C2 titrated [continued) E]
T3 construct: Bought active enzyme; also called rhDPP8; BPS Bioscience 80080
T3 sequence (Q6V1X1 whole entry): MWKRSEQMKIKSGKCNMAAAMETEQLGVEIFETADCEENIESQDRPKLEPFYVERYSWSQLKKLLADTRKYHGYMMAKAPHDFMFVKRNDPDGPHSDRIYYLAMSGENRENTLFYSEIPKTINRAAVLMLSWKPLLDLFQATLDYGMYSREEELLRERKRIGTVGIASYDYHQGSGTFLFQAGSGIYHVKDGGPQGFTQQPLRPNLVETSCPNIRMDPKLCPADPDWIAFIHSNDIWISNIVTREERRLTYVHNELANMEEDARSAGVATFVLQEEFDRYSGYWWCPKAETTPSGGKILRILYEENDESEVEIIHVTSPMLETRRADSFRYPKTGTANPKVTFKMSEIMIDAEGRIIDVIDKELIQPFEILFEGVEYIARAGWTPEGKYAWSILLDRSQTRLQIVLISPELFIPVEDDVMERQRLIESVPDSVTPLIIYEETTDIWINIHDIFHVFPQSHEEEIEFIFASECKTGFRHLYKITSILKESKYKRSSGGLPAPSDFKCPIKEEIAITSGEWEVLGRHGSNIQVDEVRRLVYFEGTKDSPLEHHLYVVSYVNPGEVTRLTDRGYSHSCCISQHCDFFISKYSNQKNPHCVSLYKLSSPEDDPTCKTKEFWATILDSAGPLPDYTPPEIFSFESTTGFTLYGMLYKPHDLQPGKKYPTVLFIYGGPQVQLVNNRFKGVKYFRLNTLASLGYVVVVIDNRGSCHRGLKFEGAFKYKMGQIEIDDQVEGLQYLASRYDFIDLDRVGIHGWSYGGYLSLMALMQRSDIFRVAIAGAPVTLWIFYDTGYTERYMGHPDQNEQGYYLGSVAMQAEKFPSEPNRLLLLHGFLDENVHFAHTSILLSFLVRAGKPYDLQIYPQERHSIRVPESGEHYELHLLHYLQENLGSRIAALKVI
From the text: as §1

[6] = target: T1, recombinant human Fibroblast Activation …; test: direct ELISA: rFAP directly coated (FAP)
[7] = target: T1, recombinant human Fibroblast Activation …; test: direct ELISA: rFAP coated directly on the plate, antibody titrated, OD 450 nm

B1: NI-206.82C2 (antibody, V domains shown)
VH: QVQLQQSGPGLVKPSQTLSLTCAISGDSVSSNSVTWNWIRQSPSRGLEWLGRTYYRSKWYNDYAVSVKGRITINPDTSKNQFYLQLKSVTPEDAAVYYCARDSSILYGDYWGQGTLVTVSS
VL: QAVLTQPSSLSASPGASASLTCTLPSGINVGTYRIFWFQQKPGSPPQYLLSYKSDSDNHQGSGVPSRFSGSKDASANAGILLISGLQSEDEADYYCMIWHSSAWVFGGGTKLTVL
notes: Recombinantly expressed as complete human IgG1 with a lambda light chain; HRP-labelled in the homologue and sandwich ELISAs, Cy5-labelled in flow cytometry; also called HRP-labelled 82C2; Cy5 labelled 82C2
Kd [1]: 5.08 nM
koff [1]: 0.000861 s⁻¹
kon [1]: 173000 M⁻¹ s⁻¹
EC50 [2]: 0.014 nM
binding result [3]: no binding
EC50 (read off the curve) [4]: ~0.05 nM
binding result [5]: no binding
EC50 [6]: 0.61 nM
EC50 [7]: 0.608 nM
